Three molecules from patent publication US20260209350A1 (Alector, published 2026) can be followed below.

Like-named read-outs stand apart in the source and are kept apart here.

The target in assay [1] is T1, human monomeric His tagged TREM2 protein (human, UniProt Q9NZC2 19-174).
T1 construct: also called hTREM2-HIS
T1 sequence: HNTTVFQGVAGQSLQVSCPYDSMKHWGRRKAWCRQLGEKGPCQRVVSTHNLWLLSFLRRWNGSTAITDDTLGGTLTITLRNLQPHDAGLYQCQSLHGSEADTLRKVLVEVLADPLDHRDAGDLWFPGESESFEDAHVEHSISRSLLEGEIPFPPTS
The assay is described as follows: ForteBio or MSD-SET, monovalent.
Method: (§1) The binding affinity of each anti-TREM2 antibody was determined by measuring their KD by ForteBio or MSD-SET. […] Briefly, ForteBio affinity measurements were performed by loading IgGs on-line onto AHQ sensors. Sensors were equilibrated off-line in assay buffer for 30 min and then monitored on-line for 60 seconds for baseline establishment. Sensors with loaded IgGs were exposed to 100 nM antigen for 5 minutes, then transferred to assay buffer for 5 min for off-rate measurement. Kinetics were analyzed using the 1:1 binding model.
Solution equilibrium titrations (SET) were performed in PBS+0.1% IgG-Free BSA (PBSF) with antigen held constant at 50 pM and incubated with 3- to 5-fold serial dilutions of antibody starting at 10 nM. Antibodies (20 nM in PBS) were coated onto standard bind MSD-ECL plates overnight at 4° C. or at room temperature for 30 min. Plates were then blocked for 30 min with shaking at 700 rpm, followed by three washes with wash buffer (PBSF+0.05% Tween 20). SET samples were applied and incubated on the plates for 150s with shaking at 700 rpm followed by one wash. Antigen captured on a plate was detected with 250 ng/mL sulfotag-labeled streptavidin in PBSF by incubation on the plate for 3 min. The plates were washed three times with wash buffer and then read on the MSD Sector Imager 2400 instrument using 1×Read Buffer T with surfactant. The percent free antigen was plotted as a function of titrated antibody in Prism and fit to a quadratic equation to extract the KD. To improve throughput, liquid handling robots were used throughout MSD-SET experiments, including SET sample preparation.

For assay [2], the target named is T2, human TREM2 on primary human cells (human, UniProt Q9NZC2 19-230).
T2 construct: also called hTREM2; TREM2 on primary human dendritic cells (hDC) and human macrophages
T2 sequence: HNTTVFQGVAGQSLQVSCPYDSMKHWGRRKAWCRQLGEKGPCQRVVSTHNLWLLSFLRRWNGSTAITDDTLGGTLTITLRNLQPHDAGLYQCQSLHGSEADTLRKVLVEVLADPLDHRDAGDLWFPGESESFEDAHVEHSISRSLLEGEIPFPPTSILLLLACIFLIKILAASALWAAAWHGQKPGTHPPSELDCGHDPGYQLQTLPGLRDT
As to the kind of experiment: FACS, primary human dendritic cells. For orientation: A flow cytometer gives signals particle by particle.

The target of assay [3] is T3, mouse TREM2 on cells (mouse, UniProt Q99NH8 19-227).
T3 construct: whole, on cells; Used for the recombinant protein on BWZ/BW cells (with mouse DAP12) and for the native protein on mouse macrophages and dendritic cells; the cell type stands under assay; also called mTREM2; mTrem2
T3 sequence (looked up): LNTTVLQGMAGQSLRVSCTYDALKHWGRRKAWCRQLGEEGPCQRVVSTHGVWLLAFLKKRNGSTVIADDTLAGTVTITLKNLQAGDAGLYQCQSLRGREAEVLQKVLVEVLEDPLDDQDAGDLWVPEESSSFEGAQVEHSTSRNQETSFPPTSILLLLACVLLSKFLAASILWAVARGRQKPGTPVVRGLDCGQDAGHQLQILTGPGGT
As to the kind of experiment: FACS, BWZ T2 cells.

Assay [4] deals with T3, mouse TREM2 on cells. As to the kind of experiment: FACS, WT mouse macrophages.
Method: (§2) Cells were harvested, plated at 10⁵/ml in a 96 well plate, washed, and incubated in 100 ul PBS containing 10-50 ug/ml Mab and Fc blocking reagent for 1 hour in ice. Cells were then washed twice and incubated in 100 ul PBS containing 5 ug/ml PE-conjugated secondary antibody for 30 minutes in ice. Cells were washed twice in cold PBS and acquired on a BD FACS Canto. Data analysis and calculation of MFI values was performed with FlowJo (TreeStar) software version 10.0.7.
The target in assay [5] is T4, mouse TREM2 Fc fusion protein (mouse, UniProt Q99NH8 19-171).
T4 construct: also called mTREM2-Fc; not shown: Fc part not specified
T4 sequence (looked up): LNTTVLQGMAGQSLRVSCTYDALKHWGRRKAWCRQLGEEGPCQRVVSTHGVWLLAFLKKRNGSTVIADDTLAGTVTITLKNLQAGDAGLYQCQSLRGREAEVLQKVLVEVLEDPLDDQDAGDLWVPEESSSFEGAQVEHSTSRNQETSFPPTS
As to the kind of experiment: ForteBio or MSD-SET, avid. A general note: BLI is a label-free optical method that tracks binding on a fibre tip over time.

Assay [6] has as its target T5, human TREM2 Fc fusion protein (human, UniProt Q9NZC2 19-174).
T5 construct: also called hTREM2-Fc; not shown: Fc part not specified
T5 sequence: T1 sequence
The assay is described as follows: ForteBio or MSD-SET, avid.

Assay [7] concerns the target T2, human TREM2 on primary human cells. As to the kind of experiment: cell-based or functional assay.
Assay [8] deals with T3, mouse TREM2 on cells. The assay is described as follows: FACS, WT mouse dendritic cells.
Method: as §2
The target in assay [9] is T4, mouse TREM2 Fc fusion protein. The assay is described as follows: ForteBio or MSD-SET, avid. The source holds these as a separate data set.
Method: as §1
(§3) Solution equilibrium titrations (SET) were performed in PBS+0.1% IgG-Free BSA (PBSF) with antigen held constant at 50 pM and incubated with 3- to 5-fold serial dilutions of antibody starting at 10 nM. Antibodies (20 nM in PBS) were coated onto standard bind MSD-ECL plates overnight at 4° C. or at room temperature for 30 min. Plates were then blocked for 30 min with shaking at 700 rpm, followed by three washes with wash buffer (PBSF+0.05% Tween 20). SET samples were applied and incubated on the plates for 150s with shaking at 700 rpm followed by one wash. Antigen captured on a plate was detected with 250 ng/mL sulfotag-labeled streptavidin in PBSF by incubation on the plate for 3 min. The plates were washed three times with wash buffer and then read on the MSD Sector Imager 2400 instrument using 1× Read Buffer T with surfactant. The percent free antigen was plotted as a function of titrated antibody in Prism and fit to a quadratic equation to extract the KD. To improve throughput, liquid handling robots were used throughout MSD-SET experiments, including SET sample preparation.
Assay [10] concerns the target T5, human TREM2 Fc fusion protein. The assay is described as follows: ForteBio or MSD-SET, avid. The source holds these as a separate data set.
Method: as §1, §3
The target of assay [11] is T1, human monomeric His tagged TREM2 protein. As to the kind of experiment: ForteBio or MSD-SET, monovalent. The source holds these as a separate data set.
Method: as §1
Solution equilibrium titrations (SET) were performed in PBS+0.1% IgG-Free BSA (PBSF) with antigen held constant at 50 pM and incubated with 3- to 5-fold serial dilutions of antibody starting at 10 nM. Antibodies (20 nM in PBS) were coated onto standard bind MSD-ECL plates overnight at 4° C. or at room temperature for 30 min. Plates were then blocked for 30 min with shaking at 700 rpm, followed by three washes with wash buffer (PBSF+0.05% Tween 20). SET samples were applied and incubated on the plates for 150s with shaking at 700 rpm followed by one wash. Antigen captured on a plate was detected with 250 ng/mL sulfotag-labeled streptavidin in PBSF by incubation on the plate for 3 min. The plates were washed three times with wash buffer and then read on the MSD Sector Imager 2400 instrument using 1× Read Buffer T with surfactant. […]
Assay [12] addresses T3, mouse TREM2 on cells. As to the kind of experiment: FACS, mTrem2 cells.
Assay [13] concerns the target T4, mouse TREM2 Fc fusion protein. The assay is described as follows: ForteBio or MSD-SET, avid. This is another data set of the same source.
In assay [14] the target is T5, human TREM2 Fc fusion protein. As to the kind of experiment: ForteBio or MSD-SET, avid. The source holds these as a separate data set.
For assay [15], the target named is T1, human monomeric His tagged TREM2 protein. As to the kind of experiment: ForteBio or MSD-SET, monovalent. The source holds these as a separate data set.

B1: Ab65 (antibody, human IgG1, V domains shown)
VH: EVQLVQSGAEVKKPGESLKISCKGSGYSFTSYWIGWVRQMPGKGLEWMGIIYPGDSDTRYSPSFQGQVTISADKSISTAYLQWSSLKASDTAMYYCARLGRKPSGSVAFDIWGQGTMVTVSS
VL: EIVLTQSPATLSLSPGERATLSCRASQSVSSYLAWYQQKPGQAPRLLIYDASNRATGIPARFSGSGSGTDFTLTISSLEPEDFAVYYCQQDYSWPYTFGGGTKVEIK
notes: human IgG1
In general, Kd refers to a measure of binding affinity in units of concentration. High values mean lower affinity, low ones higher affinity. Take B1: the Kd worked out at 5.01 nM in [1], 1.56 nM in assay [5] and 0.546 nM in assay [6]. For the same molecule, the hDC % positive in [2] was found to be 76.9%. Moreover, the results for the MFI with mouse TREM2 on cells [3], with mouse TREM2 on cells [4] and in the assay with mouse TREM2 on cells [8] were 16100 MFI, 165 MFI and 642 MFI, respectively. Further, the “Induction of CD86 & CD83 Human hDC plate (% CD83+CD86+ cells)” value in assay [7] came to 74%. For the same molecule, the “Induction of CD86 & CD83 hDC solution (% CD83+CD86+ cells)” value in [7] was determined as 1.7%.

B2: Ab21 (antibody, human IgG1, V domains shown)
VH: EVQLVQSGAEVKKPGESLKISCKGSGYSFTTYWIGWVRQMPGKGLEWMGIIYPGDSDTRYSPSFQGQVTISADKSISTAYLQWSSLKASDTAMYYCARAGHYDGGHLGMDVWGQGTTVTVSS
VL: EIVMTQSPGTLSLSPGERATLSCRASQSVSSSYLAWYQQKPGQAPRLLIYGASNRATGIPDRFSGSGSGTDFTLTISRLEPEDFAVYYCQQDDSAPYTFGGGTKVEIK
notes: human IgG1; also called antibody 21
Regarding B2, the equilibrium dissociation constant (Kd) in assay [9] came out at 0.227 nM; in assay [10], 0.344 nM; in assay [11] it was 1.14 nM.

B3: Ab52 (antibody, human IgG1, V domains shown)
VH: QVQLVQSGAEVKKPGASVKVSCKASGYTFTSYYIHWVRQAPGQGLEWMGIINPSGGSTSYAQKFQGRVTMTRDTSTSTVYMELSSLRSEDTAVYYCAREADDSSGYPLGLDVWGQGTMVTVSS
VL: EIVMTQSPATLSVSPGERATLSCRASQSVSSNLAWYQQKPGQAPRLLIYGASTRATGIPARFSGSGSGTEFTLTISSLQSEDFAVYYCQQVNSLPPTFGGGTKVEIK
notes: human IgG1; also called antibody 52
In the assay with mouse TREM2 on cells [12], B3 had an MFI of 15600 MFI. Besides, the Kd came out at 0.0896 nM in assay [13]; 1.51 nM in assay [14]; 5.75 nM in assay [15]; 0.0896 nM in assay [9]; 1.51 nM in [10]; 5.75 nM in assay [11].
